Here are results for 167 variants from the RNAGym collection of RNA variant scans (doi:10.1093/nar/gkz1192).

To fix the notation:
B1: CPEB3 Ribozyme (parent)
chain: UAACAGGGGGCCACAGCAGAAGCGUUCACGUCGCAGCCCCUGUCAGAUUCUGGUGAAUCUGCGAAUUCUGCUGUAUAUCUC

Variants of B1 are the subject of this data set. As to the kind of experiment: self-cleavage, relative activity (ratio to wild type); higher = more cleavage; in vitro, sequencing. In short, it runs like this:
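After error-prone PCR and barcoding, CPEB3 ribozyme mutant libraries were transcribed with T7 RNA polymerase at 37°C for 5 hours, then given 15 min with DNase I before an EDTA stop, and they cleaved during both steps. Reverse transcription with template switching preceded Illumina sequencing. Relative activity divides a variant's cleaved/total read fraction by the unmutated ribozyme's. At least 5 reads were required per variant, and three batches were averaged.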
On to A5U A15C, for which the self-cleavage was 1.18. As for A5U A15G, the self-cleavage was found to be 0.93. Next, A5U A15U: 1.1; A5U C68A: 0.29; A5U C68U: 0.99. Next, A5G U74C: 1.01.

A5G U74A: the self-cleavage was 1.03.

A5G U74G: the self-cleavage is 1.41.

A5U U58C: the self-cleavage is 0.61. Next, A5U U58A: 0.53; A5U A20G: 0.91. Next, A5U A20C: 0.49. Next, G6A A45G: 0.14; G6A A45U: 0.38; A5U U48C: 0.66.

Consider A5U A13G, for which the self-cleavage turned out to be 1.01. Next, A5U A13C: 1.15. Next, A5U A13U: 1.16; A5U C11G: 0.5; A5G U31G: 0.47. Take A5G U31A: the self-cleavage stood at 0.41. Next, A5G U31C: 0.48; A5U G19A: 0.72; A5G U66C: 0.38. Next, A5G U66G: 0.44; A5G U66A: 0.23.

Regarding A5U C50A, the self-cleavage stood at 1.01. Next, G6A U67A: 0.4; G6A U67C: 0.32. Next, A5U U66G: 0.93; A5U U66C: 0.45.

As for A5U U66A, the self-cleavage worked out at 0.46. Next, A5G U54C: 0.64; A5G U54G: 0.47; A5G U54A: 0.82.

Turning to G6A C39A, the self-cleavage worked out at 0.49. Next, A5U U43A: 1.24.

For the variant A5U U43C, the self-cleavage stood at 0.76.

As to A5U C62U, the self-cleavage came to 0.22. Consider A5U C62G, for which the self-cleavage stood at 0.49. Next, A5U C27G: 0.21; A5U C27U: 0.22. As for G6A A56U, the self-cleavage worked out at 0.2. Next, G6A A56G: 0.28; A5U U54C: 1.09; A5U U54A: 1.1. Next, A5G U48G: 0.1; A5G U48C: 0.57. On to A5G U48A, for which the self-cleavage was found to be 0.45. Next, G6A C79A: 0.38; G6A C79U: 0.55.

For the variant A5G U51A, the self-cleavage is 0.63. Take A5G U51C: the self-cleavage came out at 0.68. Next, A5G U51G: 0.68; G6A G53A: 0.34.

G6A G53C: the self-cleavage turned out to be 0.43. Next, A5U U80G: 1.14; A5U U80A: 1.32. Next, A5U U80C: 1.12.

Consider A5G G70C, for which the self-cleavage turned out to be 0.25. Next, A5G G70U: 0.41; A5G G70A: 0.32.

Take G6A C38U: the self-cleavage came out at 0.3.

As for G6A C38A, the self-cleavage came to 0.1.

For G6A G46U, the self-cleavage stood at 0.32. Next, G6A U49C: 0.15; G6A U49A: 0.08; A5U U67G: 0.54. Next, A5U U67C: 0.29; A5U U67A: 0.63; A5U C38A: 0.34. Next, A5U G6A: 0.52; A5U C17U: 0.73.

Turning to A5U C17G, the self-cleavage was determined as 0.26.

In the case of A5U G55U, the self-cleavage turned out to be 1.15. As to G6A U69A, the self-cleavage was determined as 0.32. Next, G6A U69C: 0.15; G6A U69G: 0.27. Next, A5U G30U: 0.26; A5U G30A: 0.27.

For A5U G30C, the self-cleavage was 0.4. As for A5U G33A, the self-cleavage was 0.27. Turning to A5U G33C, the self-cleavage was 0.16. In the case of A5U A64C, the self-cleavage was determined as 0.32. Next, A5U A64U: 0.44. Take A5U A64G: the self-cleavage was determined as 1.03. Next, A5U U51C: 1.13; A5U U51G: 1.16. Next, A5U U51A: 0.96; A5G G61A: 0.49; G6A G36A: 0.19. Next, G6A G30A: 0.19; G6A G61A: 0.34; G6A U60C: 0.27.

On to G6A U60A, for which the self-cleavage amounted to 0.33. Next, G6A A20G: 0.48. Next, G6A A20U: 0.07; A5U U25C: 0.41. Next, A5U U25A: 0.26; A5U U76A: 1.12; A5U U76C: 1.13. For the variant G6A C62A, the self-cleavage turned out to be 0.16. For G6A C62U, the self-cleavage came out at 0.25.

As to G6A C62G, the self-cleavage was 0.42. Next, A5U A77U: 1.16; A5U A77G: 1.09; A5U A18U: 0.34. Turning to A5U A18G, the self-cleavage was determined as 0.87. Next, G6A U25C: 0.27; G6A U25G: 0.47. Next, A5G U76A: 0.85; A5G U76G: 0.6; A5G U76C: 0.76. Next, A5G G55C: 0.65; A5G G55A: 0.37; A5G G55U: 0.26. As to A5U G52U, the self-cleavage was 1.15. Next, A5U G52A: 1.1. Next, G6A G10C: 0.23; G6A G10A: 0.41.

Take A5U U60A: the self-cleavage was 0.76. Next, A5U U60C: 0.58. Next, G6A G24A: 0.34.

Turning to G6A G24U, the self-cleavage was 0.23. Next, A5U G8A: 0.12. Next, A5U G8C: 0.1. With A5U C14A, the self-cleavage came to 1.19. Next, A5U C14U: 0.88; G6A U41A: 0.26. Turning to G6A U41C, the self-cleavage was 0.31. For the variant G6A U41G, the self-cleavage turned out to be 0.18. Next, A5U U31A: 0.5.

As to A5U U31C, the self-cleavage was 0.92.

For A5U U49A, the self-cleavage came out at 0.44.

In the case of A5U U49C, the self-cleavage worked out at 0.55.

A5U C29A: the self-cleavage is 0.36. Next, A5U C29U: 0.54; A5G U26G: 0.55.

Regarding A5G U26A, the self-cleavage was determined as 0.56.

Turning to A5G U26C, the self-cleavage is 0.44. Next, A5U A35G: 1.19.

As to A5U A35C, the self-cleavage was determined as 1.2. Next, A5U A35U: 0.63. Turning to G6A, the self-cleavage is 0.4.

As to G6A G16A, the self-cleavage was determined as 0.29.

Consider A5U C71U, for which the self-cleavage was found to be 0.79.

As to A5U C71A, the self-cleavage was found to be 0.48. On to A5U A56U, for which the self-cleavage amounted to 0.9. Next, A5U A56G: 0.81; A5U A56C: 0.91.

With A5U U72A, the self-cleavage worked out at 0.71.

A5U U72C: the self-cleavage is 1.14. Next, A5U U72G: 0.94; G6A G42A: 0.15. Consider G6A C81U, for which the self-cleavage was determined as 0.73. Next, A5U U69C: 0.74; A5U U69A: 0.81.

Turning to G6A U58G, the self-cleavage was 0.29. Next, G6A U58C: 0.14. Next, G6A U58A: 0.27. Consider G6A A64G, for which the self-cleavage was determined as 0.27.

Regarding G6A A64U, the self-cleavage was 0.2. On to G6A U31A, for which the self-cleavage is 0.21. Next, G6A U31C: 0.34; G6A A35C: 0.3; G6A A35G: 0.86. Regarding G6A A35U, the self-cleavage was determined as 0.26.
